From patent US20180200345A1, “PROCESS AND COMPOSITION FOR LOW DOSE INSEMINATION” (IMV TECHNOLOGIES, priority 2015, published 2018)

Test system: uterine epithelial cells (UEC)
Experiment: Sperm binding to UEC monolayer pre-incubated with lectin
Assay type: cell-based, porcine
Settings: UEC pre-incubated with lectin 10 μg/ml 15 min, then sperm 10 min
Method: Confluent UEC were grown on glass cover slips form primary cell cultures. In total, uteri from 78 primiparous German Landrace or German Edelschwein gilts aged 8-10 months and with live weights of over 110 kg, were retrieved to harvest primary cells. All animals were maintained and handled according to the German regulations for animal welfare. Gilts were monitored for natural oestrus and slaughtered according to standing heat, i.e. at the time when artificial insemination would have been performed. Gilts were stunned electrically and subsequently slaughtered by exsanguination. Three minutes after bleeding the abdomen was opened and the uterus removed in toto. Further, the ovaries, oviducts and the mesometrium were removed by cutting with sterile scissors without damaging the myometrium. The uterine horns were ligated with stitching thread between and a section of 20-25 cm was cut off. The sections were placed in sterile phosphate buffered saline (PBS) without Ca^++ and Mg^++ (Karl Roth, Karlsruhe, Germany) containing 2% Penicillin/Streptomycin (P/S; PAA, Pasching, Austria) in a glass bottle and kept at 5° C. for 45 min. After 45 min at 5° C. the uterine sections were removed from the bottle and placed on cellulose tissue under a sterile laminar flow system. The stitching material was removed. […]

B1: PNA: lectin with affinity for β-D-(1-3)-D-galactosamine (protein, UniProt P02872 24-273, looked up)
Galactose-binding lectin: AETVSFNFNSFSEGNPAINFQGDVTVLSNGNIQLTNLNKVNSVGRVLYAMPVRIWSSATGNVASFLTSFSFEMKDIKDYDPADGIIFFIAPEDTQIPAGSIGGGTLGVSDTKGAGHFVGVEFDTYSNSEYNDPPTDHVGIDVNSVDSVKTVPWNSVSGAVVKVTVIYDSSTKTLSVAVTNDNGDITTIAQVVDLKAKLPERVKFGFSASGSLGGRQIHLIRSWSFTSTLITTTRRSIDNNEKKIMNMASA
effect on sperm binding to UEC (in words): some areas showed massive sperm binding as seen with untreated UEC, whereas others were not populated at all
